Data published in US20230331868A1.

Tests used:
[1] = molecular target: bovine submaxillary mucin (bovine); assay: ELISA on BSM-coated wells; periodate-sensitive signal
[2] = molecular target: bovine submaxillary mucin (bovine); assay: ELISA on BSM-coated wells; antibody from one liter production

Binder	EC50 [1]	EC50 [2]
Humanized 3F1 VL1,VH2 (antibody, V domains shown) VH: QVQLVQSGAEVKKPGASVKISCKASGYTFTDHAIHWVRQAPGQGLEWIGYISPGNGDIKYNEKFKDRVTLTADKSSSTASMHLRSLRSDDTAVYFCKRSLLALDYWGQGTLVTVSS VL: DIQMTQSPSSLSASVGDRVTITCKASQDVGTNIAWYQQKPGKAPKVLIYSASTRHTGVPSRFSGSGSGTDFTLTISSLQPEDFATYFCQQYSSFPLTFGQGTKVEIK	1.4 nM	0.57 nM
Humanized 2G12-2B2 VL0,VH3 (antibody, V domains shown) VH: EVQLVQSGAEVKKPGASVKVSCKASGYTFTDHAIHWVRQAPGQGLEWMGYFSPGNDDIKYNEKFRGRVTMTADKSSSTAYMELRSLRSDDTAVYFCKRSLSTPYWGQGTLVTVSS VL: DIVMTQSPDSLAVSLGERATINCKSSQSLLNRGNHKNYLTWYQQKPGQPPKLLIYWASTRESGVPDRFSGSGSGTDFTLTISSLQAEDVAVYYCQNDYTYPYTFGQGTKVEIK	4.2 nM	0.8 nM
Humanized 3F1 VL1,VH4 (antibody, V domains shown) VH: EVQLVQSGAEVKKPGASVKISCKASGYTFTDHAIHWVRQAPGQGLEWIGYISPGSGDIKYNEKFKDRVTLTADKSSSTASMHLRSLRSDDTAVYFCKRSLLALDYWGQGTLVTVSS VL: DIQMTQSPSSLSASVGDRVTITCKASQDVGTNIAWYQQKPGKAPKVLIYSASTRHTGVPSRFSGSGSGTDFTLTISSLQPEDFATYFCQQYSSFPLTFGQGTKVEIK	6.5 nM	
Humanized 3F1 VL1,VH3 (antibody, V domains shown) VH: EVQLVQSGAEVKKPGASVKVSCKASGYTFTDHAIHWVRQAPGQGLEWMGYISPGSGDIKYNEKFKDRVTMTADKSSSTAYMQLRSLRSDDTAVYFCKRSLLALDYWGQGTLVTVSS VL: DIQMTQSPSSLSASVGDRVTITCKASQDVGTNIAWYQQKPGKAPKVLIYSASTRHTGVPSRFSGSGSGTDFTLTISSLQPEDFATYFCQQYSSFPLTFGQGTKVEIK	12.2 nM	
Humanized 2G12-2B2 VL0,VH2 (antibody, V domains shown) VH: QVQLVQSGAEVKKPGASVKISCKASGYTFTDHAIHWVRQAPGQGLEWIGYFSPGNDDIKYNEKFRGRVTLTADKSSSTAYMELRSLRSDDTAVYFCKRSLSTPYWGQGTLVTVSS VL: DIVMTQSPDSLAVSLGERATINCKSSQSLLNRGNHKNYLTWYQQKPGQPPKLLIYWASTRESGVPDRFSGSGSGTDFTLTISSLQAEDVAVYYCQNDYTYPYTFGQGTKVEIK	1.8 nM	
Humanized 2G12-2B2 VL2,VH1 (antibody, V domains shown) VH: QVQLVQSGAEVKKPGASVKVSCKASGYTFTDHAIHWVRQAPGQGLEWMGYFSPGNDDIKYNEKFRGRVTMTADKSSSTAYMELRSLRSDDTAVYFCKRSLSTPYWGQGTLVTVSS VL: DIVMTQSPDSLAVSLGERVTMSCKSSQSLLNRGNHKNYLTWYQQKPGQPPKLLIYWASTRESGVPDRFSGSGSGTDFTLTISSLQAEDVAVYYCQNDYTYPYTFGQGTKVEIK	4.4 nM	
Humanized 2G12-2B2 VL0,VH1 (antibody, V domains shown) VH: QVQLVQSGAEVKKPGASVKVSCKASGYTFTDHAIHWVRQAPGQGLEWMGYFSPGNDDIKYNEKFRGRVTMTADKSSSTAYMELRSLRSDDTAVYFCKRSLSTPYWGQGTLVTVSS VL: DIVMTQSPDSLAVSLGERATINCKSSQSLLNRGNHKNYLTWYQQKPGQPPKLLIYWASTRESGVPDRFSGSGSGTDFTLTISSLQAEDVAVYYCQNDYTYPYTFGQGTKVEIK	4.5 nM	
